± gives the standard deviation of the averaged measurements. Bounds are passed on as bounds.

The nature of the series: total protein half-life in vivo (active degradation + dilution); higher = more stable protein.
[1] abbreviates: E. coli NCM3722 delta-clpP delta-lon delta-hslV, growth: N-lim chemostat, doubling time 6 h.
The mark [2] stands for this setting: E. coli NCM3722 delta-clpP, growth: N-lim chemostat, doubling time 6 h.
Setting [3] is: E. coli NCM3722 delta-hslV, growth: N-lim chemostat, doubling time 6 h.
[4] abbreviates: E. coli NCM3722 delta-lon, growth: N-lim chemostat, doubling time 6 h.
Setting [5] is: E. coli NCM3722 delta-smpB, growth: N-lim chemostat, doubling time 6 h.
Setting [6] is: wild type E. coli NCM3722, growth: C-lim chemostat, doubling time 3 h.
The mark [7] stands for this setting: wild type E. coli NCM3722, growth: C-lim chemostat, doubling time 6 h.
The mark [8] stands for this setting: wild type E. coli NCM3722, growth: C-lim chemostat, doubling time 12 h.
[9] abbreviates: wild type E. coli NCM3722, growth: N-lim chemostat, doubling time 6 h.
The mark [10] stands for this setting: wild type E. coli NCM3722, growth: N-lim chemostat, doubling time 12 h.
[11] abbreviates: wild type E. coli NCM3722, growth: P-lim chemostat, doubling time 6 h.
Where [12] appears, read: wild type E. coli NCM3722, growth: P-lim chemostat, doubling time 12 h.

Consider “MPLSAQQLAAQKNLSYVLAEKLAQRILKGEYEPGTILPGEIELGEQFGVSRTAVREAVKTLTAKGMVLPRPRIGTRVMPQSNWNFLDQELLTWWMTEENFHQVIDHFLVMRICLEPQACLLAATVGTAEQKAHLNTLMAEMAALKENFRRERWIEVDMAWHEHIYEMSANPFLTSFASLFHSVYHTYFTSITSDTVIKLDLHQAIVDAIIQSDGDAAFKACQALLRSPDK”, for which the “total protein half-life in vivo” value came out at 4.46 ± 0.8 h under setting [1]; 6.01 h under setting [2]; 5.31 h under setting [3]; 6.07 ± 0.2 h under setting [4]; 5.77 ± 0.38 h under setting [5]; 2.88 h under setting [6]. The “total protein half-life in vivo” value stood at 6.4 ± 1.1 h under setting [7]; 12.2 h under setting [8]; 3 h under setting [9]; 10.5 h under setting [10]; 4.72 ± 1.2 h under setting [11]; 11.4 ± 0.35 h under setting [12].

As for “MWYQKTLTLSAKSRGFHLVTDEILNQLADMPRVNIGLLHLLLQHTSASLTLNENCDPTVRHDMERFFLRTVPDNGNYEHDYEGADDMPSHIKSSMLGTSLVLPVHKGRIQTGTWQGIWLGEHRIHGGSRRIIATLQGE [P0AF48]”, the “total protein half-life in vivo” value was 4.54 ± 0.35 h under setting [1]; > 8 h under setting [2]; 4.19 h under setting [3]; 4.31 ± 0.8 h under setting [4]; 4.33 ± 0.17 h under setting [5]; 2.96 ± 0.08 h under setting [6]. Besides, the “total protein half-life in vivo” value came to 4.74 ± 0.15 h under setting [7]; 11.9 ± 1.5 h under setting [8]; 3.98 ± 0.048 h under setting [9]; 6.66 ± 0.43 h under setting [10]; 5.51 ± 0.073 h under setting [11]; 11.3 ± 0.81 h under setting [12].

As for “MHQVVCATTNPAKIQAILQAFHEIFGEGSCHIASVAVESGVPEQPFGSEETRAGARNRVANARRLLPEADFWVAIEAGIDGDSTFSWVVIENASQRGEARSATLPLPAVILEKVREGEALGPVMSRYTGIDEIGRKEGAIGVFTAGKLTRASVYHQAVILALSPFHNAVY”, the “total protein half-life in vivo” value under setting [1] is 4.71 ± 0.46 h; the “total protein half-life in vivo” value under setting [2] is 3.828 ± 0.038 h; the “total protein half-life in vivo” value under setting [3] worked out at 3.608 ± 0.012 h; the “total protein half-life in vivo” value under setting [4] amounted to 4.01 ± 0.27 h; the “total protein half-life in vivo” value under setting [5] was found to be 3.57 ± 0.16 h; the “total protein half-life in vivo” value under setting [6] came out at 2.81 ± 0.067 h. Moreover, the “total protein half-life in vivo” value is, setting by setting: under setting [7], 5.02 ± 0.2 h; under setting [8], 8.17 ± 0.45 h; under setting [9], 3.92 h; under setting [10], 5.34 ± 0.057 h; under setting [11], 5.38 ± 0.72 h; under setting [12], 10.9 ± 2 h.

For the sequence “MSQEYIEDKEVTLTKLSSGRRLLEALLILIVLFAVWLMAALLSFNPSDPSWSQTAWHEPIHNLGGMPGAWLADTLFFIFGVMAYTIPVIIVGGCWFAWRHQSSDEYIDYFAVSLRIIGVLALILTSCGLAAINADDIWYFASGGVIGSLLSTTLQPLLHSSGGTIALLCVWAAGLTLFTGWSWVTIAEKLGGWILNILTFASNRTRRDDTWVDEDEYEDDEEYEDENHGKQHESRRARILRGALARRKRLAEKFINPMGRQTDAALFSGKRMDDDEEITYTARGVAADPDDVLFSGNRATQPEYDEYDPLLNGAPITEPVAVAAAATTATQSWAAPVEPVTQTPPVASVDVPPAQPTVAWQPVPGPQTGEPVIAPAPEGYPQQSQYAQPAVQYNEPLQQPVQPQQPYYAPAAEQPAQQPYYAPAPEQPVAGNAWQAEEQQSTFAPQSTYQTEQTYQQPAAQEPLYQQPQPVEQQPVVEPEPVVEETKPARPPLYYFEEVEEKRAREREQLAAWYQPIPEPVKEPEPIKSSLKAPSVAAVPPVEAAAAVSPLASGVKKATLATGAAATVAAPVFSLANSGGPRPQVKEGIGPQLPRPKRIRVPTRRELASYGIKLPSQRAAEEKAREAQRNQYDSGDQYNDDEIDAMQQDELARQFAQTQQQRYGEQYQHDVPVNAEDADAAAEAELARQFAQTQQQRYSGEQPAGANPFSLDDFEFSPMKALLDDGPHEPLFTPIVEPVQQPQQPVAPQQQYQQPQQPVPPQPQYQQPQQPVAPQPQYQQPQQPVAPQQQYQQPQQPVAPQQQYQQPQQPVAPQPQDTLLHPLLMRNGDSRPLHKPTTPLPSLDLLTPPPSEVEPVDTFALEQMARLVEARLADFRIKADVVNYSPGPVITRFELNLAPGVKAARISNLSRDLARSLSTVAVRVVEVIPGKPYVGLELPNKKRQTVYLREVLDNAKFRDNPSPLTVVLGKDIAGEPVVADLAKMPHLLVAGTTGSGKSVGVNAMILSMLYKAQPEDVRFIMIDPKMLELSVYEGIPHLLTEVVTDMKDAANALRWCVNEMERRYKLMSALGVRNLAGYNEKIAEADRMMRPIPDPYWKPGDSMDAQHPVLKKEPYIVVLVDEFADLMMTVGKKVEELIARLAQKARAAGIHLVLATQRPSVDVITGLIKANIPTRIAFTVSSKIDSRTILDQAGAESLLGMGDMLYSGPNSTLPVRVHGAFVRDQEVHAVVQDWKARGRPQYVDGITSDSESEGGAGGFDGAEELDPLFDQAVQFVTEKRKASISGVQRQFRIGYNRAARIIEQMEAQGIVSEQGHNGNREVLAPPPFD”, the “total protein half-life in vivo” value under setting [1] was 3.531 ± 0.015 h; the “total protein half-life in vivo” value under setting [2] was 2.17 ± 0.29 h; the “total protein half-life in vivo” value under setting [3] was 1.2 ± 0.38 h; the “total protein half-life in vivo” value under setting [4] amounted to 1.48 ± 0.059 h; the “total protein half-life in vivo” value under setting [5] was 0.895 ± 0.031 h; the “total protein half-life in vivo” value under setting [6] came out at 0.891 ± 0.042 h. Also, the “total protein half-life in vivo” value is, setting by setting: under setting [7], 1.36 ± 0.11 h; under setting [8], 1.76 ± 0.29 h; under setting [9], 1.39 ± 0.31 h; under setting [10], 1.57 ± 0.13 h; under setting [11], 1.48 ± 0.15 h; under setting [12], 2.78 ± 1 h.

For the sequence “MRHIFQRLLPRRLWLAGLPCLALLGCVQNHNKPAIDTPAEEKIPVYQLADYLSTECSDIWALQGKSTETNPLYWLRAMDCADRLMPAQSRQQARQYDDGSWQNTFKQGILLADAKITPYERRQLVARIEALSTEIPAQVRPLYQLWRDGQALQLQLAEERQRYSKLQQSSDSELDTLRQQHHVLQQQLELTTRKLENLTDIERQLSTRKPAGNFSPDTPHESEKPAPSTHEVTPDEP [P0AD44]”, the “total protein half-life in vivo” value reads like this: under setting [1], 6.11 ± 0.099 h; under setting [2], 6.44 ± 0.17 h; under setting [3], 6.18 ± 0.37 h; under setting [4], 6.9 ± 0.22 h; under setting [5], 6.12 ± 0.2 h; under setting [6], 3.34 ± 0.092 h. For the same sequence, the “total protein half-life in vivo” value is, setting by setting: under setting [7], 6.14 ± 0.27 h; under setting [8], 13.1 ± 0.57 h; under setting [9], 6.28 ± 1 h; under setting [10], 14 ± 1.2 h; under setting [12], 12.2 ± 3.1 h.

Regarding “MVKTQRVVITPGEPAGIGPDLVVQLAQREWPVELVVCADATLLTNRAAMLGLPLTLRPYSPNSPAQPQTAGTLTLLPVALRAPVTAGQLAVENGHYVVETLARACDGCLNGEFAALITGPVHKGVINDAGIPFTGHTEFFEERSQAKKVVMMLATEELRVALATTHLPLRDIADAITPALLHEVIAILHHDLRTKFGIAEPRILVCGLNPHAGEGGHMGTEEIDTIIPVLNELRAQGMKLNGPLPADTLFQPKYLDNADAVLAMYHDQGLPVLKYQGFGRGVNITLGLPFIRTSVDHGTALELAGRGKADVGSFITALNLAIKMIVNTQ”, the “total protein half-life in vivo” value was determined as 4.27 h under setting [1]; 3.54 h under setting [2]; 3.58 h under setting [3]; 4.45 ± 0.1 h under setting [4]; 4.72 ± 0.25 h under setting [5]; 2.98 ± 0.15 h under setting [6]. Besides, the “total protein half-life in vivo” value is, setting by setting: under setting [7], 5.541 ± 0.046 h; under setting [8], 9.78 ± 0.65 h; under setting [9], 4.33 h; under setting [10], 7.247 ± 0.038 h; under setting [11], 4.67 ± 0.49 h; under setting [12], 9.91 ± 0.5 h.

These data come from the supplement of paper PMC11246515.
